We go through two sequences from publication PMC10303109.

For the series, the target named is SARS-CoV-2 spike RBD wild type (SARS-CoV-2 (Wuhan strain)) (UniProt P0DTC2). Description: filter binding.

With “CTGUCGGUAAGGGAGCUAGUGUAUGCCCCUGAGUUGGGGAUAUCACCGACAG [AM047-0]”, the Kd (11 Nap-dU in place of dT) came out at 20 pM.

“TATCGAGCGTCCTGCCTTTGCGGAGGUGAACCUUACGUUCAACUGGAUCGUGUGUAGGUACACCGACAGCCACCCAGAAA [AM032-0]”: the Kd (11 Nap-dU (5-[N-(1-naphthylmethyl)carboxamide]-2'-deoxyuridine) in place of dT) came to 780 pM.

One may read the Kd as the free concentration of one partner at which half of the binding sites on the other are occupied at equilibrium, for simple one-to-one binding. A lower Kd goes with a tighter complex.
